The values below are quoted from earlier work in article PMC4468388.

Broadly, the Kd is a measure of binding affinity in units of concentration.

A value given as a limit tells only on which side of the number the result lay.

For the series, the target named is insulin receptor (Homo sapiens) (UniProt P06213).
Chain of UniProt P06213 (P06213 763-1382): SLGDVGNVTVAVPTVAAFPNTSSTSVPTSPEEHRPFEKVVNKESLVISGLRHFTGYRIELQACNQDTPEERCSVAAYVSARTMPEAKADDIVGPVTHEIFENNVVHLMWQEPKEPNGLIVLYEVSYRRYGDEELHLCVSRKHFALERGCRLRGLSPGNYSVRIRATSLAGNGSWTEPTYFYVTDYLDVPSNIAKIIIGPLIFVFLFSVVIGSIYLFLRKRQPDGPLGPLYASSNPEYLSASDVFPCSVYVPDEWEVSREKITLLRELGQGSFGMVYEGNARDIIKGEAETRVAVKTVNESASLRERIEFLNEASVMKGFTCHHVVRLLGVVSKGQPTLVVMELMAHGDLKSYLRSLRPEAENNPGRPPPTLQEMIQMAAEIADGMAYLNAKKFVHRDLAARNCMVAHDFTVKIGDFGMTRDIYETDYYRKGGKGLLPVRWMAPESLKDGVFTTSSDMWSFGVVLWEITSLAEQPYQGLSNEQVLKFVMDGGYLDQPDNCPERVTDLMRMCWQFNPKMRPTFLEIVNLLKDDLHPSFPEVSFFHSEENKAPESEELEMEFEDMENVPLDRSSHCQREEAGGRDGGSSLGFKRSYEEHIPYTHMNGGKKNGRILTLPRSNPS

Chain of insulin (P01308 90-110): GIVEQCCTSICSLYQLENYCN

As for insulin (from UniProt P01308), the Kd was < 1 nM.
